The source of these data is patent publication US12180519B2, “Cocaine esterase mutant and use thereof” (Hangzhou Normal University, priority 2021, dated 2024).

The labels stand for the following.
B1: V116K: cocaine esterase mutant, 116th valine mutated into lysine (protein, listed as Rhodococcus sp.)
chain: MVDGNYSVASNVMVPMRDGVRLAVDLYRPDADGPVPVLLVRNPYDKFDVFAWSTQSTNWLEFVRDGYAVVIQDTRGLFASEGEFVPHVDDEADAEDTLSWILEQAWCDGNVGMFGKSYLGVTQWQAAVSGVGGLKAIAPSMASADLYRAPWYGPGGALSVEALLGWSALIGRQLITSRSDARPEDAADFVQLAAICNDVAGAASVTPLAEQPLLGRLIPWVIDQVVDHPDNDESWQSISLFERLGGLATPALITAGWYDGFVGESLRTFVAVKDNADARLVVGPWSHSNLTGRNADRKFGCAATYPIQEATTMHKAFFDRHLRGETDALAGVPKVRLFVMGIDEWRDETDWPLPDTAYTPFYLGGSGAANTSTGGGTLSTSISGTESADTYLYDPADPVPSLGGTLLFHNGDNGPADQRPIHDRDDVLCYSTEVLTDPVEVTGTVSARLFVSSSAVDTDFTAKLVDVFPDGRAIALCDGIVRMRYRETLVNPTLIEAGEIYEVAIDMLATSNVFLPGHRIMVQVSSSNFPKYDRNSNTGGVIAREQLEEMCTAVNRIHRGPEHPSHIVLPIIKR
B2: Wildtype WT: wildtype bacterial cocaine esterase, amino acid sequence SEQ ID No. 1 (protein, listed as Rhodococcus sp.)
chain: B1 chain with K116V
B3: T172R/G173Q/V116K: cocaine esterase mutant of SEQ ID No. 1 with the named mutations (protein, UniProt Q9L9D7 1-574, looked up, variant T172R G173Q V116K)
Cocaine esterase: B1 chain with C196L, C301I
B4: T172R/G173Q/L196C/I301C/V116K/A51L: cocaine esterase mutant of SEQ ID No. 1 with the named mutations (protein, UniProt Q9L9D7 1-574, looked up, variant T172R G173Q L196C I301C V116K A51L)
Cocaine esterase: B1 chain with A51L
B5: T172R/G173Q/L196C/I301C/V116K/A51V: cocaine esterase mutant of SEQ ID No. 1 with the named mutations (protein, UniProt Q9L9D7 1-574, looked up, variant T172R G173Q L196C I301C V116K A51V)
Cocaine esterase: B1 chain with A51V
B6: T172R/G173Q: CocE T172R/G173Q mutant that completed the clinical test II phase of cocaine detoxification (protein, listed as Rhodococcus sp.)
chain: B1 chain with K116V
B7: T172R/G173Q/L196C/I301C/V116K/A51F: cocaine esterase mutant of SEQ ID No. 1 with the named mutations (protein, UniProt Q9L9D7 1-574, looked up, variant T172R G173Q L196C I301C V116K A51F)
Cocaine esterase: B1 chain with A51F
B8: T172R/G173Q/L196C/I301C: cocaine esterase mutant with the named mutations, comparator without V116K (protein, listed as Rhodococcus sp.)
chain: B1 chain with K116V
B9: T172R/G173Q/L196C/I301C/V116K: cocaine esterase mutant of SEQ ID No. 1 with the named mutations (protein, UniProt Q9L9D7 1-574, looked up, variant T172R G173Q L196C I301C V116K)
Cocaine esterase: B1 chain
B10: T172R/G173Q/L196C/I301C/V116K/A51W: cocaine esterase mutant of SEQ ID No. 1 with the named mutations (protein, UniProt Q9L9D7 1-574, looked up, variant T172R G173Q L196C I301C V116K A51W)
Cocaine esterase: B1 chain with A51W
B11: T172R/G173Q/L196C/I301C/V116K/A51Y: cocaine esterase mutant of SEQ ID No. 1 with the named mutations (protein, UniProt Q9L9D7 1-574, looked up, variant T172R G173Q L196C I301C V116K A51Y)
Cocaine esterase: B1 chain with A51Y

As usually defined, the Km is the substrate concentration at which the rate is half of its maximum. The kcat is the number of substrate molecules converted per active site and unit of time at saturation.

Substitutions are numbered along the chain they refer to. In names and notes the source's numbering stands.

Assay in one series: not given
The following applies: in vivo; cited from earlier work.
Regarding `COC(=O)[C@H]1[C@@H](OC(=O)c2ccccc2)C[C@@H]2CC[C@H]1N2C` [cocaine], the “share of cocaine bio-converted by BChE and CE-2 to ecgonine methyl ester (EME)” value is listed as “about 40%”; the “share of cocaine hydrolyzed by CE-1 in liver to benzoyllecgonine (BZE)” value was 45%.

A short description of a further series: Enzyme activity analysis: in vitro catalytic reaction of CocE enzymes to substrate BZE (HPLC, Michaelis-Menten). It is filed as biochemical.
Conditions: not given
From the text: Firstly, an experimental method for detecting a substrate BZE and a product benzoic acid BA by HPLC was established. Both BZE and BA had strong ultraviolet absorption at 230 nm. In HPLC analysis, acetonitrile and 0.1% formic acid were used as mobile phases to separate BZE and BA by C18 liquid chromatography column. The absorption of BZE and BA at wavelength 230 nm was detected by an ultraviolet detector, and linear standard curves of BZE and BA were obtained. The activity of BZE reaction catalyzed by CocE was determined, and the reaction temperature was 25° C., with three repetitions in each group. An enzymatic reaction was started by 50 μL of substrate BZE solution with 50 μL of enzyme solution (diluted with 0.1 M phosphate buffer (pH 7.4)).
50 μL of 10% perchloric acid was added to stop the reaction, and then, 50 μL of acetonitrile was added, and the mixture was centrifuged at 12,000 rpm for 5 minutes. Then, the supernatant was diluted to an appropriate multiple and injected into […]. The peak time, peak areas and curves of BZE and BA were compared, and the residual BZE concentration and the BA concentration in the reaction sample were calculated. The kcat and KM of each mutant could be obtained by calculating the reaction rates of BA catalyzed by enzyme at different substrate concentrations, drawing a kinetic curve of the enzyme reaction with GraphPad Prism 8, and performing Michaelis-Menten kinetic analysis.
Regarding B1, the “catalytic efficiency on benzoylecgonine compared with the wildtype enzyme (in words)” value is “greatly improved”.

Still in this series, the particulars now being: substrate BZE.
For B2, the “RCE, ratio of catalytic efficiency of the mutant enzyme to BZE and that of the wildtype enzyme” value (“RCE, ratio” for short) is reported as 1.0.

Regarding B3, the “RCE, ratio” value was 110.8.

As for B4, the “RCE, ratio” value turned out to be 536.5.

In the case of B5, the “RCE, ratio” value came out at 137.6.

For the molecule B6, the “RCE, ratio” value turned out to be 1.6.

For the molecule B7, the “RCE, ratio” value came to 211.8.

For the molecule B8, the “RCE, ratio” value came to 2.6.

Take B9: the “RCE, ratio” value is reported as 210.3.

On to B10, for which the “RCE, ratio” value worked out at 132.5.

In the case of B11, the “RCE, ratio” value is on record as 357.4.

As to B1, the “RCE, ratio” value is listed as 61.2.

The series is the same for the next values; noted with them: substrate BZE, 25° C., 0.1 M phosphate buffer pH 7.4.
With B2, the Km turned out to be 5150 µM and the catalytic constant (kcat) came out at 301.2 min⁻¹.

B3: the Michaelis-Menten constant (Km) amounted to 65.6 µM and the kcat was 425.2 min⁻¹.

Turning to B4, the Michaelis-Menten constant (Km) was 27.8 µM and the turnover number (kcat) stood at 873 min⁻¹.

Regarding B5, the Km came out at 86.2 µM and the catalytic constant (kcat) worked out at 693.2 min⁻¹.

Regarding B6, the Michaelis constant (Km) was 4360 µM and the turnover number (kcat) worked out at 418.7 min⁻¹.

On to B7, for which the Michaelis constant (Km) was 59.3 µM and the kcat is 733.9 min⁻¹.

With B8, the Km was found to be 3710 µM and the catalytic constant (kcat) came to 556.7 min⁻¹.

For the molecule B9, the Km turned out to be 46.3 µM and the kcat came to 568.6 min⁻¹.

Regarding B10, the Michaelis-Menten constant (Km) came out at 95.6 µM and the kcat came out at 740.7 min⁻¹.

For B11, the Michaelis-Menten constant (Km) worked out at 43.6 µM and the kcat came to 910.6 min⁻¹.

Take B1: the Michaelis-Menten constant (Km) stood at 89.6 µM and the kcat came to 320.4 min⁻¹.

The next series can be described thus: High-activity CocE mutant accelerated BZE metabolism in vivo (rat blood BZE and BA by HPLC). Set-up: species or system SD rats. To be noted: 0.2 or 1 mg/kg mutant i.v., then 2 mg/kg BZE i.v.; FIGS. 3A and 3B. The procedure:
Experimental male SD rats (200 g/rat) purchased from Laboratory Animal Center of Zhejiang Academy of Medical Sciences were raised in a constant-temperature and constant-humidity environment. The feeding and experimental application was carried out by following Guide for the Care and Use of Laboratory Animals.
Blood was collected from the femoral vein of rats using a blood collection needle and a heparin-treated capillary. Firstly, eight tubes of blood from the same rat, 75 μL in each tube, were added to 100 μL of 250 μM paraxon to inhibit the effect of endogenous metabolizing enzymes on BZE, and frozen at −80° C. After thawing, 19.7 μL of mixed solution containing 0, 4, 10, 20, 40, 60, 100 and 200 μM BA and BE standards, then subjected to vortex for 20 seconds, and then added with 150 μL of acetonitrile and subjected to vortex for 1 minutes, then added with 50 μL of 10% HClO4 and subjected to vortex for 1 minutes, centrifuged at 17,000 rcf for 15 minutes, and then centrifuged again after the supernatant was transferred. 250 μL of supernatant were taken out for HPLC analysis. The sample volume was 100 μL, and the HPLC experimental conditions were the same as those in Embodiment 3. The concentrations of BZE and BA in the final standard samples were 0, 0.2, 0.5, 1, 2, 3, 5 and 10 μM respectively.
There were 5 rats in each group. Firstly, 0.2 or 1 mg/kg of high-active CocE mutant or normal saline was injected into the tail vein of rats, and 2 mg/kg BZE was injected into the tail vein within 1 minute. After BZE injection, 75 μL of blood samples were taken at the 0th, 2nd, 5th, 10th, 30th, 60th, 90th and 120th minutes respectively, and 100 μL of 250 μM paraxon were added in each sample, and then frozen at −80° C. After thawing, the samples were subjected to vortex for 20 seconds, then added with 150 μL of acetonitrile and subjected to vortex for 1 minute, then added with 50 μL of 10% HClO4 and subjected to vortex for 1 minute, centrifuged at 17,000 g for 15 minutes, and then centrifuged again after the supernatant was transferred. 250 μL of supernatant were taken out for HPLC analysis. The sample volume was 100 μL. The BA and BZE concentrations in the blood of rats in each group at different time points were calculated according to the blood sample standard curve of the standards, so as to obtain the metabolism of BZE with or without the high-activity CocE mutant.
With B4, the “BZE metabolism in rats (in words)” value is “accelerating BZE metabolism”.

Regarding B5, the “BZE metabolism in rats (in words)” value is “accelerating BZE metabolism”.

Still in this series, the particulars now being: rats, 2 mg/kg BZE i.v. without mutant, second minute.
`CN1[C@H]2CC[C@@H]1[C@@H](C(=O)O)[C@@H](OC(=O)c1ccccc1)C2` [BZE, benzoylecgonine, reference compound]: the “BA concentration in the blood” value is recorded as “less than 0.5 μM” and the “BZA concentration in the blood” value came out at 15.8 µM.
